# T1: H46R/H48Q/C146S Sod1 labeled with Alexa-546 at C57 (yeast)
# T1 sequence (P00445 2-154 with H46R H48Q C146S, looked up): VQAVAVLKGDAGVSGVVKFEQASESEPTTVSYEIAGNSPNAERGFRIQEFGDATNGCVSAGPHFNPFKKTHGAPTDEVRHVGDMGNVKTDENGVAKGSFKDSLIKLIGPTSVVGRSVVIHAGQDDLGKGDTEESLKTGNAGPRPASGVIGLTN
# Key:
# [1] = biological target: T1, H46R/H48Q/C146S Sod1 labeled with Alexa-546 at C57 (yeast); experiment: other fluorescence titration; microplate, quenching of Alexa-546-labeled Sod1 on titration with Ccs1; Sod1 metal deficient and disulfide reduced (E, E-Sod1^SH); 20 mM Tris pH 7.5, 150 mM NaCl, 1 mM TCEP, 0.01% octyl glucoside and CHAPS
# [2] = biological target: T1, H46R/H48Q/C146S Sod1 labeled with Alexa-546 at C57 (yeast); experiment: as above; remark: listed apart in the source
# [3] = biological target: T1, H46R/H48Q/C146S Sod1 labeled with Alexa-546 at C57 (yeast); experiment: other fluorescence titration; microplate, quenching of Alexa-546-labeled Sod1 on titration with Ccs1; Sod1 zinc bound and disulfide reduced (E, Zn-Sod1^SH); 20 mM Tris pH 7.5, 150 mM NaCl, 1 mM TCEP, 0.01% octyl glucoside and CHAPS
# [4] = biological target: T1, H46R/H48Q/C146S Sod1 labeled with Alexa-546 at C57 (yeast); experiment: as above; remark: listed apart in the source
binder,measurement,setting,value
"copper chaperone for Sod1 (Ccs1), full-length wild type (natural protein) GHMTTNDTYEATYAIPMHCENCVNDIKACLKNVPGINSLNFDIEQQIMSVESSVAPSTIINTLRNCGKDAIIRGAGKPNSSAVAILETFQKYTIDQKKDTAVRGLARIVQVGENKTLFDITVNGVPEAGNYHASIHEKGDVSKGVESTGKVWHKFDEPIECFNESDLGKNLYSGKTFLSAPLPTWQLIGRSFVISKSLNHPENEPSSVKDYSFLGVIARSAGVWENNKQVCACTGKTVWEERKDALANNIK",Kd,[1],36 nM
same,Kd,[2],34 nM
same,Kd,[3],134 nM
same,Kd,[4],114 nM

# From paper PMC6018003
